In a protein production outcome set (Wang et al. 2014):

Test: label from the status in PepcDB records
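Note: failed if final PepcDB status was selected cloned or expressed and not failed if soluble or beyond.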

Sequence	protein production
MASRSKPSVRAFARQVHLWLGLSIGVLFAVVGLTGSILVFYTAIDDALHPEIRLRGAAPPPSWEQVYQTARATYPDKAGPWRFEVTEAGGDIPARYYKPPERADRDFAPMMVWFSADGGRVIRRDYWGEYAMTWVYDLHHRLLLQATGGAILGWSGLAMLALMVAGLTAWWPRRGGWRKALQMKPRAAPLRKLYDWHKQTGLWSFGLLVLLTLTGVLLALPKESEIALRPILGPPAGAPTIDKSITFDPGTRISVDQAVAIAQGALPGARLAWIETPSTDSGVYRLRLQTPGDPSRRFPHSFVWITPATGEVLAMTDARQAGAHDVLLNWTHPLHDASAGGLPARLLAVLVGLAPSALLILGFMRWRQRLRPQERKLSDHS	failed
MASRSRRPERRQEPLSRERIVGAAVELLDTVGERGLTFRALAERLATGPGAIYWHITGKAELLGAATDAVVTAAVTAGPTGAADSPQDAVRAVALGLWDATEAHPWLATQLATQLSRTPWGTVAPRIFESLGRQVQAMGVPEAHWFTASSALMHYILGAAGQNAANSASAGPVGADVDRDEFLDTVSTAWEGLDPDAYPFTRAVADQVRGHDDREQFLAGITLVLTGITALHRPGR	not failed
MASSAFAFPSYIITKGGLSTDSCKSTSLSSSRSLVTDLPSPCLKPNNNSHSNRRAKVCASLAEKGEYYSNRPPTPLLDTINYPIHMKNLSVKELKQLSDELRSDVIFNVSKTGGHLGSSLGVVELTVALHYIFNTPQDKILWDVGHQSYPHKILTGRRGKMPTMRQTNGLSGFTKRGESEHDCFGTGHSSTTISAGLGMAVGRDLKGKNNNVVAVIGDGAMTAGQAYEAMNNAGYLDSDMIVILNDNKQVSLPTATLDGPSPPVGALSSALSRLQSNPALRELREVAKGMTKQIGGPMHQLAAKVDEYARGMISGTGSSLFEELGLYYIGPVDGHNIDDLVAILKEVKSTRTTGPVLIHVVTEKGRGYPYAERADDKYHGVVKFDPATGRQFKTTNKTQSYTTYFAEALVAEAEVDKDVVAIHAAMGGGTGLNLFQRRFPTRCFDVGIAEQHAVTFAAGLACEGLKPFCAIYSSFMQRAYDQVVHDVDLQKLPVRFAMDRAGLVGADGPTHCGAFDVTFMACLPNMIVMAPSDEADLFNMVATAVAIDDRPSCFRYPRGNGIGVALPPGNKGVPIEIGKGRILKEGERVALLGYGSAVQSCLGAAVMLEERGLNVTVADARFCKPLDRALIRSLAKSHEVLITVEEGSIGGFGSHVVQFLALDGLLDGKLKWRPMVLPDRYIDHGAPADQLAEAGLMPSHIAATALNLIGAPREALF	failed
MASSISAAEVKVVPEEYNFLQKHVAFFDRNKDGIVYPSETFQGFRAIGCGYLLSTFAAVFINISLSSKTRPGKGFSFSFPIEVKNVRLGIHSSDSGVYDKDGRFVASKFEEIFAKHAHTHRDALTSKELKELLKANREPNDCKGGILAFGEWKVLYNLCKDKSGLLHKEIVRAVYDGSLFEQLEKQRSSKTP	failed
MASTGASRSLAASPRPPQGRSSRQDKYSVLLPTYNERENLPLIVWLLVKSFSESAINYEIIIIDDGSPDGTREVAEQLAEIYGPDRILLRPREKKLGLGTAYIHGIKHATGNYVIIMDADLSHHPKFIPEFIRKQKEGNFDIVSGTRYKGNGGVYGWDLKRKIISRGANFITQILLRPGASDLTGSFRLYRKEVLQKLIEKCVSKGYVFQMEMIVRARQMNYTIGEVPISFVDRVYGESKLGGNEIVSFLKGLLTLFATT	failed
MASVKLPWDLEEEILSRLPPRSLVRFRTVCKHWNGLFSDKRFVKKHLVRARPQFIFLTESKKMYSIEIDLGGTIEVREVPYDFHCQPMKKNFTTIMACDGLLFRDFWKQGVAVWNPWLRQVGWIEYEDKGFRFCGVGYDSCKPDKCYKILGYFNCTRRLSDSLQEGYYQAAIYECASQAFKFIDTPNPFNLWPNKDPLSVNGNLYWLAHNHPETLEYFIETFDFSMEIFKPFCLLPCRKDFGSNELVLAVFKEDRFSLLKQCFETTKIEIWVTKMKIDREEEVVWIKFMTLPTTNLPNLDDTYCCSSYFIFDKTIIMCCGDYKTGATCIYMVRGDMFKKIQINSGIFQFSYCVYLPNLISVPFESHQV	failed
MASVSGNSTAPDSAAVVTVQDPLSDYVQGLFLDMKGDYWGAIDIFRKVLVRKPADPAVHYSISQSYYRLAVLDSARVYGEAAVRLDPSNRYYLRYLAVVAHDMRDYDRAAELYGQASLLEPDRTEIMYLQGLEYMAAKRLEPALEVFRKAVRIDPYNEAAFAQTLALEIALKHYPEAIDTSKQLLKLGGNERKIGITLAELYTKTGQETLAVQTLQELIAGDRSNITYWIALFDHYIMVGRNDDFHRELAVFLERASLPPESLHDLAKLYILRSGKDSLYVAPTIALLDELTARRPRDSELFMLKGMFGMMHGHQQEGVVLFRKAVQLDSSNATAWEYLISTQLDLGQKRQAFALLAKARRRLPGQRFRWSVLEGSLLLSSHKLRRAVAVLETVAGTKRKPGDPNLLIQANINLAMACDLLGMKKRSRSAYERVLDLDPHNTLAMNNLAYLFTEEGITLRKALRLATNAVMLEPENGVYLDTLGWVHYKLGNFELARQFLEKAAATGLDEPDIYRHLGEVYRKLGNEPKAREMLEKARTVEKTQGNKKSGH	failed
MASYFDEHDCEPSDPEQETRTNMLLELARSLFNRMDFEDLGLVVDWDHHLPPPAAKTVVENLPRTVIRGSQAELKCPVCLLEFEEEETAIEMPCHHLFHSSCILPWLSKTNSCPLCRYELPTDDDTYEEHRRDKARKQQQQHRLENLHGAMYT	failed
MASYSEDQCSWRGSGLSQAVKNVEQVWLRCAEGSVEWLYPAGALRLTLSPRLPWSAMGPGESSRSPVSVCVKPDPHWGGAQLYLERDGVLELLVGDETSTTPGPAHVRCFSALPGERPALFLQATPHRDISRRIAAFRYELRGDWTAQPAVNTDPVSSEGACRPCNNTEILMAVCTSDFVVRGNIRSVGTDSNLNAAVIKVSATRVYRQKFALFPESGRLTRSGEIRTPLQCGVRPGAGSFLFTGRVHFGEAWLGCAPRYKDFLKAYEQAKQSLMIPCTLVND	failed
MASYSLVESNSFGSENWCLKLQPSYKHGLLTGLSNGEIRLLDWSTGKSVQKIKASETAINDMKVIGSDFSAGHLVSSASIDAVKVFDIRTNDRIAQIQNEANSPFISLDSRHGLLACGTELQGIDAAVYIYDIRKWDTPLRSLIDSHHDDVTCIKFHPSDVNILLSGSTDGYTNIYDLKQDEEEDALHQVINYASIHSCGWLSPKRIFTLSHMETFAIHELNDKSDELKEPQPLDFGDVREIWNCDYVVDIYPGLIATGKTQENCGELCLLPFKDEKVDTENGIVIPHAHGDEVVRDIFIPAQHSNMLYSCGEDGCVKIWENKQGPLDIPENFWDYSKKMNVLGDDDREGSINLDEPLIIQKESVSTRPRKEKHKKAKKHSMKSRFKPY	failed
MATETLTKSDAITQSLRAAVDRNFNDQVAFLQRMVQFRSVRGEEAPQQEWLAQQFADRGYKVDTFSLADVDIASHPKAAPMDTIDPAGSMQVVATADSDGKGRSLILQGHIDVVPEGPVDLWSDPPYEAKVRDGWMIGRGAQDMKGGVSAMIFALDAIRTAGYAPDARVHVQTVTEEESTGNGALSTLMRGYRADACLIPEPTGHTLTRAQVGAVWFRLRVRGTPVHVAYSETGTSAILSAMHLIRAFEEYTKELNAQAVRDPWFGQVKNPIKFNVGIIKGGDWASSTAAWCELDCRLGLLTGDTPQEAMRGIEKCLADAQATDSFLSENPAELVWSGFQADPAVCEPGGVAEDVLTAAHKAAFNAPLDARLSTAVNDTRYYSVDYGIPALCYGPYGQGPHAFDERIDLESLRKTTLSIALFVAEWCGLRKL	not failed
MATETQIRIGVMGCADIARKVSRAIHLAPNATISGVASRSLEKAKAFATANNYPESTKIHGSYESLLEDPEIDALYVPLPTSLHVEWAIKAAEKGKHILLEKPVAMNVTEFDKIVDACEANGVQIMDGTMWVHNPRTALLKEFLSDSERFGQLKTVQSCFSFAGDEDFLKNDIRVKPGLDGLGALGDAGWYAIRATLLANNFELPKTVTAFPGAVLNEAGVILSCGASLSWEDGRTATIYCSFLANLTMEITAIGTKGTLRVHDFIIPYKETEASFTTSTKAWFNDLVTAWVSPPSEHTVKTELPQEACMVREFARLVGEIKNNGAKPDGYWPSISRKTQLVVDAVKESVDKNYQQISLSGR	not failed
MATIGLDRLYYSKITEDANGEETYAQPSVLAKAITAELSVELVEAILYADDGAAEVVKDFNSGTLTLGVDDIGPMVAADLTGASTDDNGVLISASENVGTPVAVGFRAQRANGTYRYFWLYRVKFGLPATNLQTKADSITFSTPTIEGTVMRRNKLDGLGKHPWKAEVTEGDPGVSSTTITGWFTEVYEPVYTPEP	failed
MATIGSLLLWAITIYSYMIIGYILMSWFPNARESSFGQFLGSIVEPYLAPFRKIIPPLGMIDISPIVAIFALTFARYGVHAIFF	failed
MATIHVDGKTLEVDGADNLLQACLSLGLDIPYFCWHPALGSVGACRQCAVKQYTDENDKRGRLVMSCMTPATDNTWISIEDEEAKQFRASVVEWLMTNHPHDCPVCEEGGHCHLQDMTVMTGHNERRYRFTKRTHQNQELGPFIAHEMNRCIACYRCVRYYKDYAGGTDLGVYGAHDNVYFGRVEDGVLESEFSGNLTEVCPTGVFTDKTHSERYNRKWDMQFAPSICHGCSSGCNISPGERYGEIRRIENRYNGSVNHYFLCDRGRFGYGYVNREDRPRQPLLVLSKQKLSLDGALDQAAALLKERKVVGIGSPRASLESNFALRELVGEGNFYSGINEGELDRLRLILQVMQEGPLPVPSIRDIEDHDAVFVLGEDLTQTAARIALALRQSVKGKAVEMAADMKVQPWLDAAVKNIAQHAQNPLFIASVSATRLDDVAEETVHAAPDDLARLGFAVAHAIDPSAPSVADLDPQAQAFAQRITDALLAAKRPLVVSGNSLGNKALIEAAANIAKALKQREKNGSISLVVGEANSLGLALFGGDSVEAALERLTSGQADAVVVLENDLYRRTDAARVDAALAAAKVVIVADHQQTATTAKAHLVLPAASFAEGDGTLVSQEGRAQRFFQVFDPTYYDARNMVREGWRWLHAIHSTLQGKRVDWTQLDHVTEAVAEAKPILAGIRDAAPAASFRIKGLKLAREPHRYSGRTAMRANISVHEPRTPQDIDSAFAFSMEGYSGSQEDRQQIPFAWSPGWNSPQAWNKFQDEVGGHLRAGDPGVRLIEPKGEGLDWFQAVPVPFSAKADSWKVVPLYHLFGSEENSSRAAPIQQRIPETYVALSKEDADRLGVNDGATLGFQLKGQALRLPLRIDEQLGAGLIGLPVGFAGIPAAIAGCSVEGLQ	failed
MATIIFAGRSNVGKSTLIYRLTGKKVRRGKRPGVTRKIIEIEWKNHKIIDMPGFGFMMGLPKEVQERIKDEIVHFIEDNAKNIDVAVLVVDGKAAPEIIKRWEKRGEIPIDVEFYQFLRELDIPTIVAVNKLDKIKNVQEVINFLAEKFEVPLSEIDKVFIPISAKFGDNIERLKNRIFEVIRERQGRRV	not failed
MATITVVKARQIFDSRGNPTVEVDIHTSNGIKVTAAVPSGASTGIYEALELRDGGSDYLGKGVSKAVGNVNNIIGPALIGKDPTQQTAIDNFMVHELDGTQNEWGWCKQKLGANAILAVSLAVCKAGAVVSGIPLYKHIANLAGNPKIVLPVPAFNVINGGSHAGNKLAMQEFMILPVGAASFKEAMKMGVEVYHHLKSVIKKKYGQDATNVGDEGGFAPNIQENKEGLELLKTAIEKAGYTGKVVIGMDVAASEFYSEDKTYDLNFKEENNNGSQKISGDALKDLYKSFVAEYPIVSIEDPFDQDDWEHYAKMTTECGTEVQIVGDDLLVTNPKRVAKAIAEKSCNALLLKVNQIGSVTESIEAVKMSKKAGWGVMTSHRSGETEDTFIADLAVGLSTGQIKTGAPCRSERLAKYNQLLRIEEELGSEAIYAGVNFRKPVEPY	failed
MATKARVMYDFAAEPGNNELTVTEGEIITVTNPNVGGGWLEGKNNKGEQGLVPTDYVEILPNDGKDPFSC	not failed
MATKIDKEACRAAYNLVRDDGSAVIWVTFRYDGATIVPGDQGADYQHFIQQCTDDVRLFAFVRFTTGDAMSKRSKFALITWIGEDVSGLQRAKTGTDKTLVKEVVQNFAKEFVISDRKELEEDFIRSELKKAGGANYDAQSE	not failed
